Experimental data: article PMC9041927, “Aptamer based surface plasma resonance assay for direct detection of neuron specific enolase and progastrin-releasing peptide (31-98)†”

Columns and labels:
[1] = target: T1, neuron specific enolase (NSE) (UniProt P09104 2-434); assay: SPR; 5 mM MgCl2; kon 1.21e4 (printed Ms-1), koff 1.004e-3 s-1; SPR (Biacore X100, SA chip); 1x PBS pH 7.5, 0.1% Tween 20, 5 mM MgCl2 (NSE) or 2 mM MgCl2 (ProGRP31-98); temperature not stated; details: protein: recombinant; chain copies: 2; label: 5' biotin-TEG
T1 sequence (P09104 2-434): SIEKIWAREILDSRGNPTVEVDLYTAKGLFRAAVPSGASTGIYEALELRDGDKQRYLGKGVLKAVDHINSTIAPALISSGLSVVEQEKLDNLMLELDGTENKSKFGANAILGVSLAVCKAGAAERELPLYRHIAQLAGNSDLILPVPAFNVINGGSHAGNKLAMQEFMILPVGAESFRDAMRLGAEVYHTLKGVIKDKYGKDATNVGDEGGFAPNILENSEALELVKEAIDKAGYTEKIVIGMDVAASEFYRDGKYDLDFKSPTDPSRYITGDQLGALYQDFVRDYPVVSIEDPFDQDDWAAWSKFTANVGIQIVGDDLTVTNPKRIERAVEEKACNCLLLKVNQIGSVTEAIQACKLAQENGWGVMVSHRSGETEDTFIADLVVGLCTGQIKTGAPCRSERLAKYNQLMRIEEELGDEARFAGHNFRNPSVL

[2] = target: T1, neuron specific enolase (NSE); assay: SPR; NSE 125 nM to 2 uM; SPR (Biacore X100, SA chip); 1x PBS pH 7.5, 0.1% Tween 20, 5 mM MgCl2 (NSE) or 2 mM MgCl2 (ProGRP31-98); temperature not stated; details: protein: recombinant; chain copies: 2; label: 5' biotin-TEG
[3] = target: T2, progastrin-releasing peptide (31-98) (ProGRP31-98) (UniProt P07492 54-121); assay: SPR; 2 mM MgCl2; kon 8.64e3 (printed Ms-1), koff 1.321e-3 s-1; SPR (Biacore X100, SA chip); 1x PBS pH 7.5, 0.1% Tween 20, 5 mM MgCl2 (NSE) or 2 mM MgCl2 (ProGRP31-98); temperature not stated; details: protein: commercial; label: 5' biotin-TEG
T2 sequence: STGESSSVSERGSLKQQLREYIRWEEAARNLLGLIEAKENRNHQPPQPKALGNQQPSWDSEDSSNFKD

B1: NSE-Apt5-5BioTEG (ssDNA)
DNA: TCACACACGGACCTCTCCTACATTAATTGCGCATTTCGTT
**Q.** For B1, which Kd [1] is on record?
**A.** ~83 nM

B2: DNA control (ssDNA)
DNA: TCAGGTGCAGTTCTCGACTCGGTCTTGATGTGGGT
**Q.** Does B2 bind [2]?
**A.** no binding

B3: ProGRP-48-5BioTEG (ssDNA)
DNA: CATGCGGAGTAGATTCGAGCCCAGATAGTCCCTGGTTATTTCCTTAGG
**Q.** Which Kd [3] does the source give for B3 here?
**A.** 153 nM
